Results: patent US20090016988

Legend:
[1] = system: wild-type proaerolysin from Aeromonas hydrophila
[2] = system: MPPT4 (proaerolysin with the activation sequence KVRRAR changed to the MMP2 site HPVGLLAR, 6xHis tag)
[3] = system: MPPT5 (proaerolysin with the MMP2 site HPVGLLAR joined by a GG linker to the uPA site SGRSAQ in the)
[4] = system: MPPT1 (proaerolysin with the furin site KVRRAR replaced by the uPA site SGRSAQ, and a His tag)

active MMP2 protease (EMD/Calbiochem)
Hemolytic titer after MMP2 digestion (hemolytic titer (wells with lysed cells)) [1]: 0
digestion with MMP2 (Western blot, 48 hour incubation samples) [1]: less than 50% digestion for PA
digestion with MMP2, 2 hours (silver stained SDS-PAGE) [1]: PA is not measurably affected by MMP2
digestion with MMP2, 24 hours (silver stained SDS-PAGE) [1]: a small amount of digestion for PA
digestion with MMP2 (Western blot, 48 hour incubation samples) [2]: complete digestion for MPPT4
digestion with MMP2, 24 hours (silver stained SDS-PAGE) [2]: complete digestion for MPPT4 for all concentrations shown
Hemolytic titer after MMP2 digestion (hemolytic titer (wells with lysed cells)) [3]: 6.5

urokinase-type plasminogen activator (uPA)
Hemolytic titer after uPA digestion (hemolytic titer (wells with lysed cells)) [1]: 5
Hemolytic titer, 0.016 mg/mL uPA (hemolytic titer (wells with lysed cells)) [1]: 0
Hemolytic titer, 0.04 mg/mL uPA (hemolytic titer (wells with lysed cells)) [1]: 2.5
Hemolytic titer, 0.08 mg/mL uPA (hemolytic titer (wells with lysed cells)) [1]: 6
activation by uPA digestion (Coomassie stained SDS-PAGE) [1]: No activated aerolysin band, and only a very faint high molecular weight oligomer band, was seen for the PA sample digested with 1 µg of uPA
conversion to aerolysin by 0.016 mg/mL uPA (SDS-PAGE) [1]: No PA was converted to aerolysin when treated with 0.016 mg/mL uPA under these conditions
digestion with uPA, 2 hours (silver stained SDS-PAGE) [1]: it is somewhat sensitive to uPA, though not to the degree seen for MPPT5
digestion with uPA, 120 minutes (Coomassie stained SDS-PAGE) [1]: whereas much less PA was activated
Hemolytic titer after uPA digestion (hemolytic titer (wells with lysed cells)) [3]: 7
Hemolytic titer, 0.016 mg/mL uPA (hemolytic titer (wells with lysed cells)) [4]: 6
Hemolytic titer, 0.04 mg/mL uPA (hemolytic titer (wells with lysed cells)) [4]: 7.5
Hemolytic titer, 0.08 mg/mL uPA (hemolytic titer (wells with lysed cells)) [4]: 7.5
activation by uPA digestion (Coomassie stained SDS-PAGE) [4]: the MPPT1 sample digested with 1 µg of uPA showed an activated aerolysin band (˜48 kDa; lowest band), and a high molecular weight oligomer band
conversion to aerolysin by 0.016 mg/mL uPA (SDS-PAGE) [4]: MPPT1 was nearly 50% converted
digestion with uPA, 120 minutes (Coomassie stained SDS-PAGE) [4]: After 120 minutes, the MPPT1 is almost completely activated by 0.04 mg/mL uPA
